± gives the standard deviation of the averaged measurements.

In this data set the test system is Saccharomyces cerevisiae. As to the kind of experiment: protein stability index of tFT-peptide fusion (C-terminal peptide) (PSI (0-1 scale)); higher = more stable (slower turnover). As to conditions: temperature: 30 C. As for the experimental part: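 MPS profiling in S. cerevisiae of the yeast C-terminome library: the last 12 aa of each annotated ORF are fused to the C-terminus of a sfGFP-mCherry timer, after a GGGS linker. Cells are FACS-sorted into 8 mCherry/sfGFP bins and deep-sequenced. PSI runs from 0 (unstable) to 1 (stable); wild type and das1Δ backgrounds, two technical replicates each.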

Where [1] appears, read: genetic background: das1 deletion.

For the sequence PKFSKPDPLKRD [SAC1 C-terminal 12 aa], the protein stability index amounted to 0.72 ± 0.01 under setting [1] and 0.6853 ± 0.005 (genetic background: wild type).
On to PLGEVDLNSFKN [YHP1 C-terminal 12 aa], for which the protein stability index reads like this: under setting [1], 0.691 ± 0.019; (genetic background: wild type) 0.682 ± 0.034.
With PLLELVMELRDR [MOB1 C-terminal 12 aa], the protein stability index is 0.726 ± 0.051 under setting [1] and 0.736 ± 0.01 (genetic background: wild type).
Regarding PLRLLIRPVGEL [YOR248W C-terminal 12 aa], the protein stability index is 0.679 ± 0.008 under setting [1] and 0.673 ± 0.042 (genetic background: wild type).
For the sequence PLWNQRRDDLFH [NIT2 C-terminal 12 aa], the protein stability index runs as follows: under setting [1], 0.74 ± 0.042; (genetic background: wild type) 0.744 ± 0.055.
As for PMALFGIFAVAL [AFB1 C-terminal 12 aa], the protein stability index is, setting by setting: under setting [1], 0.5769 ± 0.0038; (genetic background: wild type) 0.596 ± 0.0014.
Consider PNVSYIEEKLNQ [MAS1 C-terminal 12 aa], for which the protein stability index is 0.702 ± 0.015 under setting [1] and 0.717 ± 0.011 (genetic background: wild type).
In turn, PPNTLWHYNFRK [MRPL28 C-terminal 12 aa] showed a protein stability index under setting [1] of 0.751 ± 0.024 and a protein stability index (genetic background: wild type) of 0.69 ± 0.018.
For the sequence PQGFEIIELLNF [ROM1 C-terminal 12 aa], the protein stability index came to 0.717 ± 0.044 under setting [1] and 0.718 ± 0.013 (genetic background: wild type).
As for PRSDDEDDEDSE [FAP7 C-terminal 12 aa], the protein stability index by setting is: under setting [1], 0.683 ± 0.026; (genetic background: wild type) 0.671 ± 0.025.
“PSSDHAKSVMGE [YML101C-A C-terminal 12 aa]” gave a protein stability index under setting [1] of 0.707 ± 0.018 and a protein stability index (genetic background: wild type) of 0.6804 ± 0.0044.
In the case of PSTLIITTLLFK [YJR023C C-terminal 12 aa], the protein stability index reads like this: under setting [1], 0.618 ± 0.051; (genetic background: wild type) 0.61 ± 0.017.
In the case of PSYCSLRWSHRT [YLR169W C-terminal 12 aa], the protein stability index is 0.7331 ± 0.006 under setting [1] and 0.705 ± 0.029 (genetic background: wild type).
On the same counts, the results for PTPKALTNEKTH [MGR1 C-terminal 12 aa] are 0.687 ± 0.017 and 0.664 ± 0.015.
PTYDNNRHYGND [YFL032W C-terminal 12 aa]: the protein stability index was 0.671 ± 0.0083 under setting [1] and 0.702 ± 0.018 (genetic background: wild type).
Regarding PVHLEAIDLIDC [HSP150 C-terminal 12 aa], the protein stability index runs as follows: under setting [1], 0.7087 ± 0.0034; (genetic background: wild type) 0.714 ± 0.024.
For the sequence PVRMYALKPMPN [TAE1 C-terminal 12 aa], the protein stability index runs as follows: under setting [1], 0.6931 ± 0.0035; (genetic background: wild type) 0.665 ± 0.04.
On the same counts, the results for PWFAPIREQIEK [CKA1 C-terminal 12 aa] are 0.722 ± 0.011 and 0.7489 ± 0.0034.
Turning to QAKEVFDKMQKE [FMP23 C-terminal 12 aa], the protein stability index by setting is: under setting [1], 0.7133 ± 0.0026; (genetic background: wild type) 0.686 ± 0.065.
For the sequence QARKSKSVSFYA [RPT5 C-terminal 12 aa], the protein stability index stood at 0.693 ± 0.016 under setting [1] and 0.692 ± 0.027 (genetic background: wild type).
For QDMMSGFLGGSK [GET4 C-terminal 12 aa], the protein stability index reads like this: under setting [1], 0.69072 ± 1.9e-05; (genetic background: wild type) 0.667 ± 0.0077.
Take QDNSEVVDLTSD [NFI1 C-terminal 12 aa]: the protein stability index was 0.694 ± 0.012 under setting [1] and 0.6728 ± 0.006 (genetic background: wild type).
On to QGMLQSFLDREL [YOL057W C-terminal 12 aa], for which the protein stability index is, setting by setting: under setting [1], 0.721 ± 0.023; (genetic background: wild type) 0.666 ± 0.042.
In the case of QHSRGSPNNSNN [YKU80 C-terminal 12 aa], the protein stability index by setting is: under setting [1], 0.701 ± 0.0071; (genetic background: wild type) 0.708 ± 0.039.
On the same counts, the results for QIAGRYVVDTSK [ADH2 C-terminal 12 aa] are 0.6869 ± 0.0057 and 0.6522 ± 0.0027.
On the same counts, the results for QINDLEIYRKRL [SNT309 C-terminal 12 aa] are 0.6847 ± 0.006 and 0.68 ± 0.029.
QKLGIIGKNDLK [PSD1 C-terminal 12 aa] had a protein stability index under setting [1] of 0.685 ± 0.029 and a protein stability index (genetic background: wild type) of 0.709 ± 0.016.
Consider QKYQVYKNFETL [UTR4 C-terminal 12 aa], for which the protein stability index stood at 0.7 ± 0.015 under setting [1] and 0.688 ± 0.0077 (genetic background: wild type).
With QLHLVLTLRGGN [RUB1 C-terminal 12 aa], the protein stability index by setting is: under setting [1], 0.683 ± 0.011; (genetic background: wild type) 0.74 ± 0.053.
On the same counts, the results for QLSRNEESLMKK [COS5 C-terminal 12 aa] are 0.7 ± 0.015 and 0.752 ± 0.059.
As for QMTRNVNNNDFS [YAH1 C-terminal 12 aa], the protein stability index is 0.711 ± 0.028 under setting [1] and 0.664 ± 0.014 (genetic background: wild type).
For QMVRDEGFEKNP [GPM3 C-terminal 12 aa], the protein stability index was 0.68 ± 0.038 under setting [1] and 0.644 ± 0.036 (genetic background: wild type).
As for QPDDKTKGILDR [ERV41 C-terminal 12 aa], the protein stability index by setting is: under setting [1], 0.7292 ± 0.0051; (genetic background: wild type) 0.682 ± 0.03.
On the same counts, the results for QQEQDKKKKSNH [PRE6 C-terminal 12 aa] are 0.709 ± 0.013 and 0.49 ± 0.013.
As to QRDFLLFYNAIM [CDC36 C-terminal 12 aa], the protein stability index stood at 0.687 ± 0.012 under setting [1] and 0.533 ± 0.075 (genetic background: wild type).
Consider QSFETVFAGQKP [MET17 C-terminal 12 aa], for which the protein stability index is, setting by setting: under setting [1], 0.7008 ± 0.0036; (genetic background: wild type) 0.702 ± 0.027.
Take QTDNTSATNQLL [YSP2 C-terminal 12 aa]: the protein stability index reads like this: under setting [1], 0.7 ± 0.0084; (genetic background: wild type) 0.701 ± 0.029.
For QTINTKPLYIKN [YGR290W C-terminal 12 aa], the protein stability index is, setting by setting: under setting [1], 0.686 ± 0.02; (genetic background: wild type) 0.665 ± 0.075.
As for QVGKSQAQAVTL [ANY1 C-terminal 12 aa], the protein stability index is, setting by setting: under setting [1], 0.674 ± 0.0092; (genetic background: wild type) 0.7167 ± 0.0057.
QVPEEDFPVVNY [DNL4 C-terminal 12 aa]: the protein stability index is, setting by setting: under setting [1], 0.697 ± 0.009; (genetic background: wild type) 0.718 ± 0.034.
Consider RAEVAALAAENK [PFK1 C-terminal 12 aa], for which the protein stability index by setting is: under setting [1], 0.6903 ± 0.0045; (genetic background: wild type) 0.6608 ± 0.0054.
Turning to RAHITKQKKKGY [SDA1 C-terminal 12 aa], the protein stability index under setting [1] worked out at 0.7317 ± 0.0043 and the protein stability index (genetic background: wild type) worked out at 0.6636 ± 0.0011.
With RARLIRKKKTIN [YER085C C-terminal 12 aa], the protein stability index reads like this: under setting [1], 0.751 ± 0.022; (genetic background: wild type) 0.202 ± 0.022.
Consider RAVTPTGKKGRN [YOR296W C-terminal 12 aa], for which the protein stability index stood at 0.675 ± 0.035 under setting [1] and 0.6578 ± 0.0052 (genetic background: wild type).
“RCNVYIIRCIHH [YOL164W-A C-terminal 12 aa]”: the protein stability index is 0.5183 ± 0.00055 under setting [1] and 0.51 ± 0.037 (genetic background: wild type).
For the sequence RCWVQAVFDVPQ [ABP140 C-terminal 12 aa], the protein stability index runs as follows: under setting [1], 0.725 ± 0.011; (genetic background: wild type) 0.691 ± 0.046.
With RDHDLKDCGDIF [OSH2 C-terminal 12 aa], the protein stability index runs as follows: under setting [1], 0.7104 ± 0.0011; (genetic background: wild type) 0.698 ± 0.039.
Turning to RELFGVGTPQKL [TEA1 C-terminal 12 aa], the protein stability index runs as follows: under setting [1], 0.7173 ± 0.0037; (genetic background: wild type) 0.728 ± 0.023.
In the case of RELTDLFGYKLG [SLM4 C-terminal 12 aa], the protein stability index by setting is: under setting [1], 0.708 ± 0.015; (genetic background: wild type) 0.677 ± 0.02.
As for RESINEAKLRHT [BDH2 C-terminal 12 aa], the protein stability index was found to be 0.676 ± 0.02 under setting [1] and 0.63 ± 0.011 (genetic background: wild type).
On the same counts, the results for REWASNTVKKEK [EMC5 C-terminal 12 aa] are 0.698 ± 0.013 and 0.692 ± 0.024.
The sequence RFRVVLGDSDDE [PSH1 C-terminal 12 aa] came in with a protein stability index under setting [1] of 0.672 ± 0.043 and a protein stability index (genetic background: wild type) of 0.721 ± 0.075.
Consider RGRGALVDSDDE [ELF1 C-terminal 12 aa], for which the protein stability index turned out to be 0.713 ± 0.026 under setting [1] and 0.674 ± 0.046 (genetic background: wild type).
Regarding RGSCDNWKKRQN [YBL044W C-terminal 12 aa], the protein stability index reads like this: under setting [1], 0.726 ± 0.021; (genetic background: wild type) 0.482 ± 0.0072.
In the case of RIPKELTGTVRF [GAT4 C-terminal 12 aa], the protein stability index is 0.705 ± 0.018 under setting [1] and 0.672 ± 0.014 (genetic background: wild type).
RITRLSSMTYTY [YPS5 C-terminal 12 aa] had a protein stability index under setting [1] of 0.711 ± 0.038 and a protein stability index (genetic background: wild type) of 0.69 ± 0.033.
In turn, RKQAHELRPKSE [SPO7 C-terminal 12 aa] returned a protein stability index under setting [1] of 0.77 ± 0.024 and a protein stability index (genetic background: wild type) of 0.79 ± 0.019.
With RKSHERPDDVSV [SUR7 C-terminal 12 aa], the protein stability index reads like this: under setting [1], 0.692 ± 0.018; (genetic background: wild type) 0.69 ± 0.028.
Consider RKSTRSDNPHEA [CBF1 C-terminal 12 aa], for which the protein stability index was 0.6989 ± 0.0016 under setting [1] and 0.687 ± 0.017 (genetic background: wild type).
On the same counts, the results for RLDRHFEKKKKV [RDS3 C-terminal 12 aa] are 0.704 ± 0.023 and 0.7 ± 0.021.
On to RLEQGSNGFMFA [NAM8 C-terminal 12 aa], for which the protein stability index runs as follows: under setting [1], 0.702 ± 0.026; (genetic background: wild type) 0.699 ± 0.011.
On the same counts, the results for RLGASNSSNNDA [SLY1 C-terminal 12 aa] are 0.702 ± 0.022 and 0.68 ± 0.018.
As for RLRKWLSTFVHQ [YNL034W C-terminal 12 aa], the protein stability index under setting [1] amounted to 0.756 ± 0.045 and the protein stability index (genetic background: wild type) was found to be 0.182 ± 0.017.
“RMYTRHKTSFPL [YAL042C-A C-terminal 12 aa]” returned a protein stability index under setting [1] of 0.711 ± 0.02 and a protein stability index (genetic background: wild type) of 0.66427 ± 0.00065.
As to RNSGEKLVAVLK [YNL134C C-terminal 12 aa], the protein stability index is, setting by setting: under setting [1], 0.691 ± 0.0088; (genetic background: wild type) 0.6702 ± 0.0052.
As for “RNSPSYTGDHKT [YOR072W-A C-terminal 12 aa]”, the protein stability index by setting is: under setting [1], 0.722 ± 0.02; (genetic background: wild type) 0.6928 ± 0.0067.
For RNWLGFCTKYEL [ATG15 C-terminal 12 aa], the protein stability index is, setting by setting: under setting [1], 0.741 ± 0.021; (genetic background: wild type) 0.735 ± 0.047.

Values taken from the supplement of paper PMC10724198.
